Measurements taken from patent US20190055314A1 (ADAGENE, published 2019).

Molecular target: T1, human CD137 ligand (human, UniProt P41273 71-254, limits assumed, biotinylated in Example 6)
T1 construct: also called HuCD137L; biotinylated CD137L
Assay: flow cytometry

T1 sequence (P41273 71-254 limits assumed): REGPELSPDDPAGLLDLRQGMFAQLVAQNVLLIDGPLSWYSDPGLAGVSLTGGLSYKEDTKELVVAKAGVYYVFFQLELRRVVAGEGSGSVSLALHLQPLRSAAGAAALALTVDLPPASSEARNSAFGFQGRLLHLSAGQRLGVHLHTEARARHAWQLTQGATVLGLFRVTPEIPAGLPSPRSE

B1: full-length mouse CD137 on the cell surface (receptor)
chain: VQNSCDNCQPGTFCRKYNPVCKSCPPSTFSSIGGQPNCNICRVCAGYFRFKKFCSSTHNAECECIEGFHCLGPQCTRCEKDCRPGQELTKQGCKTCSLGTFNDQNGTGVCRPWTNCSLDGRSVLKTGTTEKDVVCGPPVVSFSPSTTISVTPEGG
B1: no binding.
